Data on six molecules can be found in paper PMC4914101 (Nucleic Acids Research, 2016).

B3: SART3 HAT-C with Lα (residues 278–611) (domain or fragment, human, UniProt Q15020 278-611, looked up)
chain: PESVIQNYNKALQQLEKYKPYEEALLQAEAPRLAEYQAYIDFEMKIGDPARIQLIFERALVENCLVPDLWIRYSQYLDRQLKVKDLVLSVHNRAIRNCPWTVALWSRYLLAMERHGVDHQVISVTFEKALNAGFIQATDYVEIWQAYLDYLRRRVDFKQDSSKELEELRAAFTRALEYLKQEVEERFNESGDPSCVIMQNWARIEARLCNNMQKARELWDSIMTRGNAKYANMWLEYYNLERAHGDTQHCRKALHRAVQCTSDYPEHVCEVLLTMERTEGSLEDWDIAVQKTETRLARVNEQRMKAAEKEAALVQQEEEKAEQRKRARAEKKAL

In data set [1] the target is T1, SART3 HAT repeat domain (residues 94–611) (human, UniProt Q15020 94-611).
T1 sequence (looked up): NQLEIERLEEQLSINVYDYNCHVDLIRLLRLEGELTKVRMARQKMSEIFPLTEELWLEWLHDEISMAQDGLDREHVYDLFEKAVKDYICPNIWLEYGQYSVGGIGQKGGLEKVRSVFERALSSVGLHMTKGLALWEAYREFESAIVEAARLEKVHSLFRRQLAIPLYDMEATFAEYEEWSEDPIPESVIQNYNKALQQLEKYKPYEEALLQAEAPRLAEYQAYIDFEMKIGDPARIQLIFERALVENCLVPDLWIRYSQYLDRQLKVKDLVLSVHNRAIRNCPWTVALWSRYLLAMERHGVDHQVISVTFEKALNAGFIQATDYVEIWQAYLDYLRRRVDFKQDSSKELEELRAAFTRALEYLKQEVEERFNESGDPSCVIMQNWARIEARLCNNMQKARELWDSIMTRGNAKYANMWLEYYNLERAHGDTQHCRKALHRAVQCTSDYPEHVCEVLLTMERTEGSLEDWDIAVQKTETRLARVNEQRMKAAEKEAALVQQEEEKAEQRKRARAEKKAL
Put plainly: ITC. Background: In ITC the heat of successive injections is recorded.

Data set [2] concerns the target B3. Put plainly: ITC.
Data set [3] addresses mouse importin-α2 (residues 70–498) (mouse, UniProt P52293 70-498). Put plainly: ITC.
Data set [4] concerns the molecule itself. Put plainly: crystal structure.
In data set [5] the target is T1, SART3 HAT repeat domain (residues …). Put plainly: ITC. The source holds these as a separate data set.

Read-outs that look alike come from different tables or passages of the source.

B1: DUSP-UBL domains of human USP4 (residues 1–230) (domain or fragment, UniProt Q13107 1-230, looked up)
chain: MAEGGGCRERPDAETQKSELGPLMRTTLQRGAQWYLIDSRWFKQWKKYVGFDSWDMYNVGEHNLFPGPIDNSGLFSDPESQTLKEHLIDELDYVLVPTEAWNKLLNWYGCVEGQQPIVRKVVEHGLFVKHCKVEVYLLELKLCENSDPTNVLSCHFSKADTIATIEKEMRKLFNIPAERETRLWNKYMSNTYEQLSKLDNTVQDAGLYQGQVLVIEPQNEDGTWPRQTLQ
One may read the Kd as a measure of binding affinity in units of concentration. Usually stoichiometry N stands for a count of units in the complex or per binding partner. Regarding B1, in data set [1], binding was characterised by a dissociation constant (Kd) of 880 ± 130 nM, the dH was -21.6 ± 0.6 kcal/mol and the “stoichiometry N” value is 1.07 ± 0.02. Besides, in data set [2], the Kd is 580 ± 30 nM, the dH was -21.1 ± 0.4 kcal/mol and the “stoichiometry N” value worked out at 1.05 ± 0.01.
Consider RKRARAEKKALKKKKKIRGPEKRGADEDDEKEWGDDEEEQPSKRRRVEN (domain or fragment) [SART3 NLS (residues 601–649)], for which, in data set [3], binding was characterised by a dissociation constant (Kd) of 210 ± 10 nM, the dH was -8.6 ± 0.2 kcal/mol and the “stoichiometry N” value came to 1.01 ± 0.01.

B2: DUSP-UBL domains of human USP15 (residues 1–226) (domain or fragment, UniProt Q9Y4E8 1-226, looked up)
chain: MAEGGAADLDTQRSDIATLLKTSLRKGDTWYLVDSRWFKQWKKYVGFDSWDKYQMGDQNVYPGPIDNSGLLKDGDAQSLKEHLIDELDYILLPTEGWNKLVSWYTLMEGQEPIARKVVEQGMFVKHCKVEVYLTELKLCENGNMNNVVTRRFSKADTIDTIEKEIRKIFSIPDEKETRLWNKYMSNTFEPLNKPDSTIQDAGLYQGQVLVIEQKNEDGTWPRGPST
With B2, in data set [1], the equilibrium dissociation constant (Kd) was found to be 190 ± 40 nM, the dH is -16.1 ± 0.1 kcal/mol and the “stoichiometry N” value came out at 0.99 ± 0.01. Also, in data set [2], the Kd worked out at 140 ± 60 nM, the dH is -17.7 ± 0.5 kcal/mol and the “stoichiometry N” value amounted to 1.09 ± 0.01.
In the case of B3, the binding result in data set [4] is reported as “binds”.

B4: USP11^L4 (USP11 DUSP-UBL with the linker replaced by the USP4 linker) (domain or fragment, human, UniProt P51784 73-288, looked up)
chain: EELPGLDSQWRQIENGESGRERPLRAGESWFLVEKHWYKQWEAYVQGGDQDSSTFPGCINNATLFQDEINWRLKEGLVEGEDYVLLPAAAWHYLVSWYGLEHGQPPIERKVIEHGLFVKHCKVEVYPVELLLVRHNDLGKSHTVQFSHTDSIGLVLRTARERFLVEPQEDTRLWAKNSEGSLDRLYDTHITVLDAALETGQLIIMETRKKDGTWPSAQL
On to B4, for which, in data set [5], the Kd is 20100 ± 4360 nM, the dH was -9.1 ± 0.4 kcal/mol and the “stoichiometry N” value was 0.89 ± 0.15.

B5: USP11^L15 (USP11 DUSP-UBL with the linker replaced by the USP15 linker) (domain or fragment, human, UniProt P51784 73-288, looked up)
chain: EELPGLDSQWRQIENGESGRERPLRAGESWFLVEKHWYKQWEAYVQGGDQDSSTFPGCINNATLFQDEINWRLKEGLVEGEDYVLLPAAAWHYLVSWYGLEHGQPPIERKVIEQGMFVKHCKVEVYPVELLLVRHNDLGKSHTVQFSHTDSIGLVLRTARERFLVEPQEDTRLWAKNSEGSLDRLYDTHITVLDAALETGQLIIMETRKKDGTWPSAQL
For B5, in data set [5], binding was put at a Kd of 18700 ± 2250 nM, the dH is -5.7 ± 0.7 kcal/mol and the “stoichiometry N” value stood at 1.06 ± 0.09.
